Results on six proteins are retold here after article PMC3538638, “On the Molecular Basis of D-Bifunctional Protein Deficiency Type III” (PLoS ONE, 2013).

A word on the stoichiometry N: it is the number of molecules, sites or subunits per partner or assembly.

The labels stand for the following.
B1: HsDH(N158D), patient variant of the 3R-hydroxyacyl-CoA dehydrogenase fragment of human MFE-2 (domain or fragment)
chain: MGSPLRFDGRVVLVTGAGAGLGRAYALAFAERGALVVVNDLGGDFKGVGKGSLAADKVVEEIRRRGGKAVANYDSVEEGEKVVKTALDAFGRIDVVVNNAGILRDRSFARISDEDWDIIHRVHLRGSFQVTRAAWEHMKKQKYGRIIMTSSASGIYGDFGQANYSAAKLGLLGLANSLAIEGRKSNIHCNTIAPNAGSRMTQTVMPEDLVEALKPEYVAPLVLWLCHESCEENGGLFEVGAGWIGKLRWERTLGAIVRQKNHPMTPEAVKANWKKICDFENASKPQSIQESTGSIIEVLSKIDS
notes: Made by site-directed mutagenesis of pLWRP51::HsDH; for the limits see the note of m1; also called N158D variant; source: E. coli BL21(DE3)pLysS, pLWRP51 vector, purified (Ni-NTA, Superdex 200)
B2: HsDH(T15A), patient variant of the 3R-hydroxyacyl-CoA dehydrogenase fragment of human MFE-2 (domain or fragment)
chain: MGSPLRFDGRVVLVAGAGAGLGRAYALAFAERGALVVVNDLGGDFKGVGKGSLAADKVVEEIRRRGGKAVANYDSVEEGEKVVKTALDAFGRIDVVVNNAGILRDRSFARISDEDWDIIHRVHLRGSFQVTRAAWEHMKKQKYGRIIMTSSASGIYGNFGQANYSAAKLGLLGLANSLAIEGRKSNIHCNTIAPNAGSRMTQTVMPEDLVEALKPEYVAPLVLWLCHESCEENGGLFEVGAGWIGKLRWERTLGAIVRQKNHPMTPEAVKANWKKICDFENASKPQSIQESTGSIIEVLSKIDS
notes: Made by site-directed mutagenesis of pLWRP51::HsDH; for the limits see the note of m1; also called T15A variant; source: E. coli BL21(DE3)pLysS, pLWRP51 vector, purified (Ni-NTA, Superdex 200)
B3: HsDH(R248C), patient variant of the 3R-hydroxyacyl-CoA dehydrogenase fragment of human MFE-2 (domain or fragment)
chain: MGSPLRFDGRVVLVTGAGAGLGRAYALAFAERGALVVVNDLGGDFKGVGKGSLAADKVVEEIRRRGGKAVANYDSVEEGEKVVKTALDAFGRIDVVVNNAGILRDRSFARISDEDWDIIHRVHLRGSFQVTRAAWEHMKKQKYGRIIMTSSASGIYGNFGQANYSAAKLGLLGLANSLAIEGRKSNIHCNTIAPNAGSRMTQTVMPEDLVEALKPEYVAPLVLWLCHESCEENGGLFEVGAGWIGKLCWERTLGAIVRQKNHPMTPEAVKANWKKICDFENASKPQSIQESTGSIIEVLSKIDS
notes: Made by site-directed mutagenesis of pLWRP51::HsDH; for the limits see the note of m1; also called R248C variant; source: E. coli BL21(DE3)pLysS, pLWRP51 vector, purified (Ni-NTA, Superdex 200)
B4: HsDH(W249G), patient variant of the 3R-hydroxyacyl-CoA dehydrogenase fragment of human MFE-2 (domain or fragment)
chain: MGSPLRFDGRVVLVTGAGAGLGRAYALAFAERGALVVVNDLGGDFKGVGKGSLAADKVVEEIRRRGGKAVANYDSVEEGEKVVKTALDAFGRIDVVVNNAGILRDRSFARISDEDWDIIHRVHLRGSFQVTRAAWEHMKKQKYGRIIMTSSASGIYGNFGQANYSAAKLGLLGLANSLAIEGRKSNIHCNTIAPNAGSRMTQTVMPEDLVEALKPEYVAPLVLWLCHESCEENGGLFEVGAGWIGKLRGERTLGAIVRQKNHPMTPEAVKANWKKICDFENASKPQSIQESTGSIIEVLSKIDS
notes: Made by site-directed mutagenesis of pLWRP51::HsDH; for the limits see the note of m1; also called W249G variant; source: E. coli BL21(DE3)pLysS, pLWRP51 vector, purified (Ni-NTA, Superdex 200)
B5: HsDH(E232K), patient variant of the 3R-hydroxyacyl-CoA dehydrogenase fragment of human MFE-2 (domain or fragment)
chain: MGSPLRFDGRVVLVTGAGAGLGRAYALAFAERGALVVVNDLGGDFKGVGKGSLAADKVVEEIRRRGGKAVANYDSVEEGEKVVKTALDAFGRIDVVVNNAGILRDRSFARISDEDWDIIHRVHLRGSFQVTRAAWEHMKKQKYGRIIMTSSASGIYGNFGQANYSAAKLGLLGLANSLAIEGRKSNIHCNTIAPNAGSRMTQTVMPEDLVEALKPEYVAPLVLWLCHESCEKNGGLFEVGAGWIGKLRWERTLGAIVRQKNHPMTPEAVKANWKKICDFENASKPQSIQESTGSIIEVLSKIDS
notes: Made by site-directed mutagenesis of pLWRP51::HsDH; for the limits see the note of m1; also called E232K variant; source: E. coli BL21(DE3)pLysS, pLWRP51 vector, purified (Ni-NTA, Superdex 200)
B6: wild type 3R-hydroxyacyl-CoA dehydrogenase (DH) fragment of human MFE-2 (multifunctional enzyme type 2) (domain or fragment)
chain: MGSPLRFDGRVVLVTGAGAGLGRAYALAFAERGALVVVNDLGGDFKGVGKGSLAADKVVEEIRRRGGKAVANYDSVEEGEKVVKTALDAFGRIDVVVNNAGILRDRSFARISDEDWDIIHRVHLRGSFQVTRAAWEHMKKQKYGRIIMTSSASGIYGNFGQANYSAAKLGLLGLANSLAIEGRKSNIHCNTIAPNAGSRMTQTVMPEDLVEALKPEYVAPLVLWLCHESCEENGGLFEVGAGWIGKLRWERTLGAIVRQKNHPMTPEAVKANWKKICDFENASKPQSIQESTGSIIEVLSKIDS
notes: 3R-hydroxyacyl-CoA dehydrogenase (DH) fragment of human MFE-2 / D-bifunctional protein; also called HsDH; native HsDH; source: E. coli BL21(DE3)pLysS, pLWRP51::HsDH, purified (Ni-NTA, Superdex 200)

The first data set deals with the molecule itself. Put plainly: SEC; Superdex 200 10/300 GL, 20 mM PIPES/HCl pH 6.8, 150 mM NaCl, 1 mM EDTA, 5% glycerol, 1 mM NaN3, 0.3 ml/min; retention times of wild type and variants compared.
Turning to B1, the binding result is “binds”.
Turning to B2, the binding result is given as “binds”.
Same read-out and setting: as for B3, the entry is “binds”; as for B4, “binds”.
Still for that read-out and setting: as for B5, the entry is “binds”.

The next data set deals with the molecule itself. Put plainly: static light scattering (SLS); purified recombinant protein; SLS as described previously [3]; the methods name it for the native HsDH protein.
On to B6, for which the “stoichiometry N” value amounted to 2.
